Assay results as given in PMC3098377, “CpG Islands Recruit a Histone H3 Lysine 36 Demethylase”.

T1: KDM2A ZF-CxxC domain (human, UniProt Q9Y2K7 544-648)
T1 sequence: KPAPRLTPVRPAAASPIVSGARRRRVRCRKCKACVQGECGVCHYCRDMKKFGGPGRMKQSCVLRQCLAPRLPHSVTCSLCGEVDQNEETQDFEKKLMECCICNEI

B1: short probe with two CpGs (dsDNA)
DNA 1: GTAGGCGGTGCTACACGGTTCCTGAAGTG
DNA 2: CACTTCAGGAACCGTGTAGCACCGCCTAC
B2: short probe, CpGs methylated (dsDNA)
DNA 1: GTAGGCGGTGCTACACGGTTCCTGAAGTG
DNA 2: CACTTCAGGAACCGTGTAGCACCGCCTAC
modifications: CpG methylated (5mC); strands and method not stated

Tests used:
KDM2A 1-747 (human) = test: SPR; details: EMSA: 4% Ficoll 400, 20 mM Hepes pH 7.9, 150 mM KCl, 1 mM EDTA, 0.5 mM DTT, 25 ng/ul poly-dAdT, room temperature, 0.8% agarose gel 0.5x TBE 4 C; SPR: 10 mM …
KDM2A ZF-CxxC domain = biological target: T1, KDM2A ZF-CxxC domain; test: EMSA; EMSA: 4% Ficoll 400, 20 mM Hepes pH 7.9, 150 mM KCl, 1 mM EDTA, 0.5 mM DTT, 25 ng/ul poly-dAdT, room temperature, 0.8% agarose gel 0.5x TBE 4 C; SPR: 10 mM Hepes pH 7.9, 150 mM NaCl, 1 mM DTT, further additive truncated in material, KDM2A 0-3 uM; details: protein: recombinant; tags: His (pET30b); label: 32P 5' end; blunt

Row | Molecule | Kd (KDM2A 1-747 (human)) | binding result (KDM2A ZF-CxxC domain)
1 | 75 bp probe, 1 CpG | 640 nM | –
2 | 75 bp probe, 6 CpG | 560 nM | –
3 | B1 | – | binds
4 | B2 | – | no binding
